In publication PMC3348108 (The Journal of Experimental Medicine, 2012):
Where no end group is shown, it is not given here.

B1: DBD–Ligase IV (amino acids 1–240) (domain or fragment)
chain: MAASQTSQTVASHVPFADLCSTLERIQKSKGRAEKIRHFREFLDSWRKFHDALHKNHKDVTDSFYPAMRLILPQLERERMAYGIKETMLAKLYIELLNLPRDGKDALKLLNYRTPTGTHGDAGDFAMIAYFVLKPRCLQKGSLTIQQVNDLLDSIASNNSAKRKDLIKKSLLQLITQSSALEQKWLIRMIIKDLKLGVSQQTIFSVFHNDAAELHNVTTDLEKVCRQLHDPSVGLSDISI

Key:
GST–Artemis C terminus = GST–Artemis C terminus (human, UniProt Q96SD1 386-692); assay: pull-down
Sequence of GST–Artemis C terminus (Q96SD1 386-692): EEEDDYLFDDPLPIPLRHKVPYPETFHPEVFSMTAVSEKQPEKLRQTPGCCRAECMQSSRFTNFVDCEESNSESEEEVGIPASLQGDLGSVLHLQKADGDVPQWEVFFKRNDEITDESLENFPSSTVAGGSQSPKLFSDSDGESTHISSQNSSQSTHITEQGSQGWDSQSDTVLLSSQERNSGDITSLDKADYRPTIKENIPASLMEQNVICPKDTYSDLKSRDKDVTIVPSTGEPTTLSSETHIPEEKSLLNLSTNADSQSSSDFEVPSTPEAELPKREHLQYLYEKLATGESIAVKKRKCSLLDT

[1] = target: B1; assay: fluorescence polarisation

Binder | binding result (GST–Artemis C terminus) | Kd [1] [nM]
B1 | binds | 
{FAM}-DVPQWEVFFKR [Ligase IV–interacting human Artemis peptide, WT] |  | ~2600
